Results as given in article PMC10540216, “Activity Guided Azide-methyllysine Photo-trapping for Substrate Profiling of Lysine Demethylases” (Journal of the American Chemical Society, 2023).

What follows are molecules tested on KDM4A-I71AzF (assay: CASI: photo-crosslinking with HEK293T cell extracts, StrepTactin enrichment and LC-MS/MS proteomics). Details: sheet "Final results but with 0.01".
Type: binding, human
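Note: lysates from HEK293T cells pretreated with a KDM4 inhibitor to raise proteome methylation, affinity-purified after ±UV, gel-resolved, trypsin-digested, with exclusive unique peptides per protein averaged per condition.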

Molecule | Fold change (+UV/-UV)
SYVM_HUMAN (protein, UniProt Q5ST30 27-1063, looked up) Valine--tRNA ligase, …: SVSTQSEPHGSPISRRNREAKQKRLREKQATLEAEIAGESKSPAESIKAWRPKELVLYEIPTKPGEKKDVSGPLPPAYSPRYVEAAWYPWWVREGFFKPEYQARLPQATGETFSMCIPPPNVTGSLHIGHALTVAIQDALVRWHRMRGDQVLWVPGSDHAGIATQAVVEKQLWKERGVRRHELSREAFLREVWQWKEAKGGEICEQLRALGASLDWDRECFTMDVGSSVAVTEAFVRLYKAGLLYRNHQLVNWSCALRSAISDIEVENRPLPGHTQLRLPGCPTPVSFGLLFSVAFPVDGEPDAEVVVGTTRPETLPGDVAVAVHPDDSRYTHLHGRQLRHPLMGQPLPLITDYAVQPHVGTGAVKVTPAHSPADAEMGARHGLSPLNVIAEDGTMTSLCGDWLQGLHRFVAREKIMSVLSEWGLFRGLQNHPMVLPICSRSGDVIEYLLKNQWFVRCQEMGARAAKAVESGALELSPSFHQKNWQHWFSHIGDWCVSRQLWWGHQIPAYLVVEDHAQGEEDCWVVGRSEAEAREVAAELTGRPGAELTLERDPDVLDTWFSSALFPFSALGWPQETPDLARFYPLSLLETGSDLLLFWVGRMVMLGTQLTGQLPFSKVLLHPMVRDRQGRKMSKSLGNVLDPRDIISGVEMQVLQEKLRSGNLDPAELAIVAAAQKKDFPHGIPECGTDALRFTLCSHGVQAGDLHLSVSEVQSCRHFCNKIWNALRFILNALGEKFVPQPAEELSPSSPMDAWILSRLALAAQECERGFLTRELSLVTHALHHFWLHNLCDVYLEAVKPVLWHSPRPLGPPQVLFSCADLGLRLLAPLMPFLAEELWQRLPPRPGCPPAPSISVAPYPSACSLEHWRQPELERRFSRVQEVVQVLRALRATYQLTKARPRVLLQSSEPGDQGLFEAFLEPLGTLGYCGAVGLLPPGAAAPSGWAQAPLSDTAQVYMELQGLVDPQIQLPLLAARRYKLQKQLDSLTARTPSEGEAGTQRQQKLSSLQLELSKLDKAASHLRQLMDEPPAPGSPEL | 0.5
NU133_HUMAN (protein, UniProt Q8WUM0 1-1156, looked up) Nuclear pore complex protein …: MFPAAPSPRTPGTGSRRGPLAGLGPGSTPRTASRKGLPLGSAVSSPVLFSPVGRRSSLSSRGTPTRMFPHHSITESVNYDVKTFGSSLPVKVMEALTLAEVDDQLTINIDEGGWACLVCKEKLIIWKIALSPITKLSVCKELQLPPSDFHWSADLVALSYSSPSGEAHSTQAVAVMVATREGSIRYWPSLAGEDTYTEAFVDSGGDKTYSFLTAVQGGSFILSSSGSQLIRLIPESSGKIHQHILPQGQGMLSGIGRKVSSLFGILSPSSDLTLSSVLWDRERSSFYSLTSSNISKWELDDSSEKHAYSWDINRALKENITDAIWGSESNYEAIKEGVNIRYLDLKQNCDGLVILAAAWHSADNPCLIYYSLITIEDNGCQMSDAVTVEVTQYNPPFQSEDLILCQLTVPNFSNQTAYLYNESAVYVCSTGTGKFSLPQEKIVFNAQGDSVLGAGACGGVPIIFSRNSGLVSITSRENVSILAEDLEGSLASSVAGPNSESMIFETTTKNETIAQEDKIKLLKAAFLQYCRKDLGHAQMVVDELFSSHSDLDSDSELDRAVTQISVDLMDDYPASDPRWAESVPEEAPGFSNTSLIILHQLEDKMKAHSFLMDFIHQVGLFGRLGSFPVRGTPMATRLLLCEHAEKLSAAIVLKNHHSRLSDLVNTAILIALNKREYEIPSNLTPADVFFREVSQVDTICECLLEHEEQVLRDAPMDSIEWAEVVINVNNILKDMLQAASHYRQNRNSLYRREESLEKEPEYVPWTATSGPGGIRTVIIRQHEIVLKVAYPQADSNLRNIVTEQLVALIDCFLDGYVSQLKSVDKSSNRERYDNLEMEYLQKRSDLLSPLLSLGQYLWAASLAEKYCDFDILVQMCEQTDNQSRLQRYMTQFADQNFSDFLFRWYLEKGKRGKLLSQPISQHGQLANFLQAHEHLSWLHEINSQELEKAHATLLGLANMETRYFAKKKTLLGLSKLAALASDFSEDMLQEKIEEMAEQERFLLHQETLPEQLLAEKQLNLSAMPVLTAPQLIGLYICEENRRANEYDFKKALDLLEYIDEEEDININDLKLEILCKALQRDNWSSSDGKDDPIEVSKDSIFVKILQKLLKDGIQLSEYLPEVKDLLQADQLGSLKSNPYFEFVLKANYEYYVQGQI | 0.8
DPOG1_HUMAN (protein, UniProt P54098 1-1239, looked up) DNA polymerase subunit gamma-1: MSRLLWRKVAGATVGPGPVPAPGRWVSSSVPASDPSDGQRRRQQQQQQQQQQQQQPQQPQVLSSEGGQLRHNPLDIQMLSRGLHEQIFGQGGEMPGEAAVRRSVEHLQKHGLWGQPAVPLPDVELRLPPLYGDNLDQHFRLLAQKQSLPYLEAANLLLQAQLPPKPPAWAWAEGWTRYGPEGEAVPVAIPEERALVFDVEVCLAEGTCPTLAVAISPSAWYSWCSQRLVEERYSWTSQLSPADLIPLEVPTGASSPTQRDWQEQLVVGHNVSFDRAHIREQYLIQGSRMRFLDTMSMHMAISGLSSFQRSLWIAAKQGKHKVQPPTKQGQKSQRKARRGPAISSWDWLDISSVNSLAEVHRLYVGGPPLEKEPRELFVKGTMKDIRENFQDLMQYCAQDVWATHEVFQQQLPLFLERCPHPVTLAGMLEMGVSYLPVNQNWERYLAEAQGTYEELQREMKKSLMDLANDACQLLSGERYKEDPWLWDLEWDLQEFKQKKAKKVKKEPATASKLPIEGAGAPGDPMDQEDLGPCSEEEEFQQDVMARACLQKLKGTTELLPKRPQHLPGHPGWYRKLCPRLDDPAWTPGPSLLSLQMRVTPKLMALTWDGFPLHYSERHGWGYLVPGRRDNLAKLPTGTTLESAGVVCPYRAIESLYRKHCLEQGKQQLMPQEAGLAEEFLLTDNSAIWQTVEELDYLEVEAEAKMENLRAAVPGQPLALTARGGPKDTQPSYHHGNGPYNDVDIPGCWFFKLPHKDGNSCNVGSPFAKDFLPKMEDGTLQAGPGGASGPRALEINKMISFWRNAHKRISSQMVVWLPRSALPRAVIRHPDYDEEGLYGAILPQVVTAGTITRRAVEPTWLTASNARPDRVGSELKAMVQAPPGYTLVGADVDSQELWIAAVLGDAHFAGMHGCTAFGWMTLQGRKSRGTDLHSKTATTVGISREHAKIFNYGRIYGAGQPFAERLLMQFNHRLTQQEAAEKAQQMYAATKGLRWYRLSDEGEWLVRELNLPVDRTEGGWISLQDLRKVQRETARKSQWKKWEVVAERAWKGGTESEMFNKLESIATSDIPRTPVLGCCISRALEPSAVQEEFMTSRVNWVVQSSAVDYLHLMLVAMKWLFEEFAIDGRFCISIHDEVRYLVREEDRYRAALALQITNLLTRCMFAYKLGLNDLPQSVAFFSAVDIDRCLRKEVTMDCKTPSNPTGMERRYGIPQGEALDIYQIIELTKGSLEKRSQPGP | 0
GTF2I_HUMAN (protein, UniProt P78347 2-998, looked up) General transcription factor …: AQVAMSTLPVEDEESSESRMVVTFLMSALESMCKELAKSKAEVACIAVYETDVFVVGTERGRAFVNTRKDFQKDFVKYCVEEEEKAAEMHKMKSTTQANRMSVDAVEIETLRKTVEDYFCFCYGKALGKSTVVPVPYEKMLRDQSAVVVQGLPEGVAFKHPENYDLATLKWILENKAGISFIIKRPFLEPKKHVGGRVMVTDADRSILSPGGSCGPIKVKTEPTEDSGISLEMAAVTVKEESEDPDYYQYNIQAGPSETDDVDEKQPLSKPLQGSHHSSEGNEGTEMEVPAEDSTQHVPSETSEDPEVEVTIEDDDYSPPSKRPKANELPQPPVPEPANAGKRKVREFNFEKWNARITDLRKQVEELFERKYAQAIKAKGPVTIPYPLFQSHVEDLYVEGLPEGIPFRRPSTYGIPRLERILLAKERIRFVIKKHELLNSTREDLQLDKPASGVKEEWYARITKLRKMVDQLFCKKFAEALGSTEAKAVPYQKFEAHPNDLYVEGLPENIPFRSPSWYGIPRLEKIIQVGNRIKFVIKRPELLTHSTTEVTQPRTNTPVKEDWNVRITKLRKQVEEIFNLKFAQALGLTEAVKVPYPVFESNPEFLYVEGLPEGIPFRSPTWFGIPRLERIVRGSNKIKFVVKKPELVISYLPPGMASKINTKALQSPKRPRSPGSNSKVPEIEVTVEGPNNNNPQTSAVRTPTQTNGSNVPFKPRGREFSFEAWNAKITDLKQKVENLFNEKCGEALGLKQAVKVPFALFESFPEDFYVEGLPEGVPFRRPSTFGIPRLEKILRNKAKIKFIIKKPEMFETAIKESTSSKSPPRKINSSPNVNTTASGVEDLNIIQVTIPDDDNERLSKVEKARQLREQVNDLFSRKFGEAIGMGFPVKVPYRKITINPGCVVVDGMPPGVSFKAPSYLEISSMRRILDSAEFIKFTVIRPFPGLVINNQLVDQSESEGPVIQESAEPSQLEVPATEEIKETDGSSQIKQEPDPTW | 3
DHX30_HUMAN (protein, UniProt Q7L2E3 1-1194, looked up) ATP-dependent RNA helicase …: MFSLDSFRKDRAQHRQRQCKLPPPRLPPMCVNPTPGGTISRASRDLLKEFPQPKNLLNSVIGRALGISHAKDKLVYVHTNGPKKKKVTLHIKWPKSVEVEGYGSKKIDAERQAAAAACQLFKGWGLLGPRNELFDAAKYRVLADRFGSPADSWWRPEPTMPPTSWRQLNPESIRPGGPGGLSRSLGREEEEDEEEELEEGTIDVTDFLSMTQQDSHAPLRDSRGSSFEMTDDDSAIRALTQFPLPKNLLAKVIQIATSSSTAKNLMQFHTVGTKTKLSTLTLLWPCPMTFVAKGRRKAEAENKAAALACKKLKSLGLVDRNNEPLTHAMYNLASLRELGETQRRPCTIQVPEPILRKIETFLNHYPVESSWIAPELRLQSDDILPLGKDSGPLSDPITGKPYVPLLEAEEVRLSQSLLELWRRRGPVWQEAPQLPVDPHRDTILNAIEQHPVVVISGDTGCGKTTRIPQLLLERYVTEGRGARCNVIITQPRRISAVSVAQRVSHELGPSLRRNVGFQVRLESKPPSRGGALLFCTVGILLRKLQSNPSLEGVSHVIVDEVHERDVNTDFLLILLKGLQRLNPALRLVLMSATGDNERFSRYFGGCPVIKVPGFMYPVKEHYLEDILAKLGKHQYLHRHRHHESEDECALDLDLVTDLVLHIDARGEPGGILCFLPGWQEIKGVQQRLQEALGMHESKYLILPVHSNIPMMDQKAIFQQPPVGVRKIVLATNIAETSITINDIVHVVDSGLHKEERYDLKTKVSCLETVWVSRANVIQRRGRAGRCQSGFAYHLFPRSRLEKMVPFQVPEILRTPLENLVLQAKIHMPEKTAVEFLSKAVDSPNIKAVDEAVILLQEIGVLDQREYLTTLGQRLAHISTDPRLAKAIVLAAIFRCLHPLLVVVSCLTRDPFSSSLQNRAEVDKVKALLSHDSGSDHLAFVRAVAGWEEVLRWQDRSSRENYLEENLLYAPSLRFIHGLIKQFSENIYEAFLVGKPSDCTLASAQCNEYSEEEELVKGVLMAGLYPNLIQVRQGKVTRQGKFKPNSVTYRTKSGNILLHKSTINREATRLRSRWLTYFMAVKSNGSVFVRDSSQVHPLAVLLLTDGDVHIRDDGRRATISLSDSDLLRLEGDSRTVRLLKELRRALGRMVERSLRSELAALPPSVQEEHGQLLALLAELLRGPCGSFDVRKTADD | 0.75
